Reference: publication PMC5469197, “ANGUSTIFOLIA, a Plant Homolog of CtBP/BARS Localizes to Stress Granules and Regulates Their Formation” (Frontiers in Plant Science, 2017)

What was measured:
Assay in all cases: co-IP; LUMIER in HEK293TN cells: Prot-A fusion co-transfected with Renilla luciferase fusion (AN always the luciferase fusion with the interactors); luciferase activity before (input) and after pulldown; percentage pulldown = pulldown/input x 100; empty vectors as negative control; positive if more than two times the background
Settings in all cases: partners not purified
[1] = biological target: T1, PROTEIN MEI2-LIKE 5 (ATML5), Prot-A fusion (Arabidopsis thaliana, UniProt Q8VWF5 1-800)
T1 construct: Protein MEI2-like 5, Arabidopsis thaliana, AT1G29400; CDS amplified from Col-0 cDNA; source: HEK293TN cells, transfected; not shown: Protein A (Staphylococcus aureus), N-terminal, kept
T1 sequence (looked up): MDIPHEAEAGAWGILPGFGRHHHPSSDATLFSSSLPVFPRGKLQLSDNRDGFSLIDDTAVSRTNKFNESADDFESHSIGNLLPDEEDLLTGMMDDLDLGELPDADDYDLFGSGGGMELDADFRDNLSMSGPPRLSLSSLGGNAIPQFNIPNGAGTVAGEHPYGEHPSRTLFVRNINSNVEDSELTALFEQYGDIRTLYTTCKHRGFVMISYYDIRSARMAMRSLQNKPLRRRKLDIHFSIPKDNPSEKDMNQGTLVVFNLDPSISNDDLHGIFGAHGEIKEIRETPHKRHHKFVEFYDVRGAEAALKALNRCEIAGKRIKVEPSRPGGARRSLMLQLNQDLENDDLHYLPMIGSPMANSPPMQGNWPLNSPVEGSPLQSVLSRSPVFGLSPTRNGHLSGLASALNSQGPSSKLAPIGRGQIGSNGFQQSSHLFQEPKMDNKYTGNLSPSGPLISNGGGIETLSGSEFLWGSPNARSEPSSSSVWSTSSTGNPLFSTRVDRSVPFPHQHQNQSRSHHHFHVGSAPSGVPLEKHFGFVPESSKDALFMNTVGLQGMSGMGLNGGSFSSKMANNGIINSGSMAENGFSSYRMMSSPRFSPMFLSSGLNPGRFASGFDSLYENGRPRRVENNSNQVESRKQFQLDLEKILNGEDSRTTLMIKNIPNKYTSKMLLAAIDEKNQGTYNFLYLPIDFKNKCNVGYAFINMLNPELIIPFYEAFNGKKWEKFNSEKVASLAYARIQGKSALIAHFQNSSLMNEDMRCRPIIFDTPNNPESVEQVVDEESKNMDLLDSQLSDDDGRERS

[2] = biological target: T2, GLYCINE-RICH RNA-BINDING PROTEIN 2 (GRP2), Prot-A fusion (Arabidopsis thaliana, UniProt Q9SVM8 35-158)
T2 construct: CDS amplified from Col-0 cDNA; source: HEK293TN cells, transfected; not shown: Protein A (Staphylococcus aureus), N-terminal, kept
T2 sequence (looked up): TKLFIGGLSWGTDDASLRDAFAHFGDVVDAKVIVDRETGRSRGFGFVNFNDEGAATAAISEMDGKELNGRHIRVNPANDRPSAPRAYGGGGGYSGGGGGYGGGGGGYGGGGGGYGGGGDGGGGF

[3] = biological target: T3, RNA BINDING PROTEIN 47B (RBP47B), Prot-A fusion (Arabidopsis thaliana, UniProt Q0WW84 1-435)
T3 construct: RBP47B, Arabidopsis thaliana, AT3G19130; CDS amplified from Col-0 cDNA; source: HEK293TN cells, transfected; not shown: Protein A (Staphylococcus aureus), N-terminal, kept
T3 sequence (looked up): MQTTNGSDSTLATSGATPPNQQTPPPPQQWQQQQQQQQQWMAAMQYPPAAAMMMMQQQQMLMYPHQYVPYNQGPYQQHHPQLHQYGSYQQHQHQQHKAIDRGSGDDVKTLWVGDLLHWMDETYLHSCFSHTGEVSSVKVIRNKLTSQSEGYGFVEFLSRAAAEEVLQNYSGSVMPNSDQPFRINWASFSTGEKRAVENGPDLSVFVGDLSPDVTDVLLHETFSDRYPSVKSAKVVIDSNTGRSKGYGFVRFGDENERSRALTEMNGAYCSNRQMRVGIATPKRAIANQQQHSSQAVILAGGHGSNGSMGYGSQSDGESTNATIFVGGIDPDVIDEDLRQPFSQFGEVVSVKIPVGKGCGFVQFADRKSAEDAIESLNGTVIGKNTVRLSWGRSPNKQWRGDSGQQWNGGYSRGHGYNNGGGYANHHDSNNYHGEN

[4] = biological target: T4, EIF (ISO) 4E, Prot-A fusion (Arabidopsis thaliana, UniProt O04663 1-198)
T4 construct: EIF(iso)4E, Arabidopsis thaliana, AT5G35620; CDS amplified from Col-0 cDNA; source: HEK293TN cells, transfected; not shown: Protein A (Staphylococcus aureus), N-terminal, kept
T4 sequence (looked up): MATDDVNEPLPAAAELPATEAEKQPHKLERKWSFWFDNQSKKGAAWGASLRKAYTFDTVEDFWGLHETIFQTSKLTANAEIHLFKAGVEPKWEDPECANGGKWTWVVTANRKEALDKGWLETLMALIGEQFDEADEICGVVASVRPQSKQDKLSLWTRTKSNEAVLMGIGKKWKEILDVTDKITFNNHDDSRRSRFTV

B1: AN, Renilla luciferase fusion (LUMIER) (natural protein, Arabidopsis thaliana, UniProt O23702 1-636, looked up)
chain: MSKIRSSATMPHRDQPSPASPHVVTLNCIEDCALEQDSLAGVAGVEYVPLSRIADGKIESATAVLLHSLAYLPRAAQRRLRPHQLILCLGSADRAVDSTLAADLGLRLVHVDTSRAEEIADTVMALILGLLRRTHLLSRHALSASGWLGSLQPLCRGMRRCRGMVLGIVGRSVSARYLASRSLAFKMSVLYFDVPEGDEERIRPSRFPRAARRMDTLNDLLAASDVISLHCALTNDTVQILNAECLQHIKPGAFLVNTGSCQLLDDCAVKQLLIDGTIAGCALDGAEGPQWMEAWVKEMPNVLILPRSADYSEEVWMEIREKAISILHSFFLDGVIPSNTVSDEEVEESEASEEEEQSPSKHEKLAIVESTSRQQGESTLTSTEIVRREASELKESLSPGQQHVSQNTAVKPEGRRSRSGKKAKKRHSQQKYMQKTDGSSGLNEESTSRRDDIAMSDTEEVLSSSSRCASPEDSRSRKTPLEVMQESSPNQLVMSSKKFIGKSSELLKDGYVVALYAKDLSGLHVSRQRTKNGGWFLDTLSNVSKRDPAAQFIIAYRNKDTVGLRSFAAGGKLLQINRRMEFVFASHSFDVWESWSLEGSLDECRLVNCRNSSAVLDVRVEILAMVGDDGITRWID
notes: ANGUSTIFOLIA (AN), Arabidopsis thaliana, AT1G01510; CDS amplified from Col-0 cDNA; in the dimerisation test the second copy must have been the N-terminal protein A fusion (surmised from the LUMIER format); also called wild-type AN; source: HEK293TN cells, transfected; not shown: Renilla reniformis luciferase, N-terminal, kept
Which results are given for B1?
fold change from background [1]: 5.04 fold; percentage pulldown [1]: 0.47%; fold change from background [2]: 2.52 fold; percentage pulldown [2]: 0.24%; fold change from background [3]: 3.53 fold; percentage pulldown [3]: 0.33%; fold change from background [4]: 4.09 fold; percentage pulldown [4]: 0.39%
